PMC9465852, “Comparative analyses of vertebrate CPEB proteins define two subfamilies with coordinated yet distinct functions in post-transcriptional gene regulation”

B1: CPE-A (ssRNA)
RNA: AGUGUACAGUGUUUUUAAUAGUUUGUUG
modifications: 3' biotin
B2: CPE-G (ssRNA)
RNA: AGUGUACAGUGUUUUUGUAAGUUUGUUG
modifications: 3' biotin

Tests used:
CPEB4 [1] = target: T1, CPEB4 (Xenopus laevis, UniProt A0A1L8GV75 1-702); assay: AlphaScreen; 50 nM protein, 0.5-75 nM RNA; CPEB4 binds A- and G-CPE equally well; 10 mM HEPES pH 7.4, 100 mM KCl, 3 mM MgCl2, 1 mM DTT, 0.2 mg/mL tRNA, 0.1% Tween; room temperature; 50 or 75 nM protein; conditions: protein: recombinant; tags: 6xHis; label: 3' biotin; single strand
T1 sequence (A0A1L8GV75 entry or part of it): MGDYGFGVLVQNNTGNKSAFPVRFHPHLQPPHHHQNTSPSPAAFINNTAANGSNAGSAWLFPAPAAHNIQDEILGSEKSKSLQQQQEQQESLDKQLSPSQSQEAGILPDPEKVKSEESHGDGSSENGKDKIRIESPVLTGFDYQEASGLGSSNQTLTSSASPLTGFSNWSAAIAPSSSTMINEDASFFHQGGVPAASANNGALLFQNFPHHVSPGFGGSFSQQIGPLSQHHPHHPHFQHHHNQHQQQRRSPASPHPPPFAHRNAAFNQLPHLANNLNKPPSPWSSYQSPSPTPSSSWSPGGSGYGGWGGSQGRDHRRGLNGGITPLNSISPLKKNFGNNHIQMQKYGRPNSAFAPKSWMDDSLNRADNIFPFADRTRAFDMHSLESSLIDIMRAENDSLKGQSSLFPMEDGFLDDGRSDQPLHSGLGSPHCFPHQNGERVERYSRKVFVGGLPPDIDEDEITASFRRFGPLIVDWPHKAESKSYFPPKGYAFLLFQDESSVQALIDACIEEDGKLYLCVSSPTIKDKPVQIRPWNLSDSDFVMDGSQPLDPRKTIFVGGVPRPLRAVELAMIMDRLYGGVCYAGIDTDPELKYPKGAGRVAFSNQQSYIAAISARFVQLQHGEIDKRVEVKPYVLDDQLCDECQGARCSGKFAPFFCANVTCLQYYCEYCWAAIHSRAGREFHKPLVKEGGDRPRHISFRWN

CPEB4 [2] = target: T1, CPEB4; assay: AlphaScreen; 50 nM protein, 0.5-75 nM RNA; equal to or better than CPE-A; 10 mM HEPES pH 7.4, 100 mM KCl, 3 mM MgCl2, 1 mM DTT, 0.2 mg/mL tRNA, 0.1% Tween; room temperature; 50 or 75 nM protein; conditions: protein: recombinant; tags: 6xHis; label: 3' biotin; single strand

| Binder | binding result (CPEB4 [1]) | binding result (CPEB4 [2]) |
| --- | --- | --- |
| B1 | binds | – |
| B2 | – | binds |
